US20110195911A1, “SYNTHETIC ANALOGS OF THE JUXTAMEMBRANE DOMAIN OF IGF1R AND USES THEREOF” (THE UNITED STATES OF AMERICA,AS REPRESENTED BY THE …, priority 2008, published 2011)
The star is where a group is joined. Palmitoyl = CCCCCCCCCCCCCCCC(=O)*

B1: peptide 10 (Pal-HRKRNNSRLGNGVL-NH2) (peptide)
peptide: Palmitoyl-HRKRNNSRLGNGVL-NH2
SMILES: CCCCCCCCCCCCCCCC(=O)N[C@@H](Cc1c[nH]cn1)C(=O)N[C@@H](CCCNC(=N)N)C(=O)N[C@@H](CCCCN)C(=O)N[C@@H](CCCNC(=N)N)C(=O)N[C@@H](CC(N)=O)C(=O)N[C@@H](CC(N)=O)C(=O)N[C@@H](CO)C(=O)N[C@@H](CCCNC(=N)N)C(=O)N[C@@H](CC(C)C)C(=O)NCC(=O)N[C@@H](CC(N)=O)C(=O)NCC(=O)N[C@H](C(=O)N[C@@H](CC(C)C)C(N)=O)C(C)C
B2: peptide 13 (Pal-KRNNSRLGNGVLYASVN-NH2) (peptide)
peptide: Palmitoyl-KRNNSRLGNGVLYASVN-NH2
SMILES: CCCCCCCCCCCCCCCC(=O)N[C@@H](CCCCN)C(=O)N[C@@H](CCCNC(=N)N)C(=O)N[C@@H](CC(N)=O)C(=O)N[C@@H](CC(N)=O)C(=O)N[C@@H](CO)C(=O)N[C@@H](CCCNC(=N)N)C(=O)N[C@@H](CC(C)C)C(=O)NCC(=O)N[C@@H](CC(N)=O)C(=O)NCC(=O)N[C@H](C(=O)N[C@@H](CC(C)C)C(=O)N[C@@H](Cc1ccc(O)cc1)C(=O)N[C@@H](C)C(=O)N[C@@H](CO)C(=O)N[C@H](C(=O)N[C@@H](CC(N)=O)C(N)=O)C(C)C)C(C)C
B3: peptide 6 (Pal-VHRKRNNSRLGNGVLYASV-NH2) (peptide)
peptide: Palmitoyl-VHRKRNNSRLGNGVLYASV-NH2
SMILES: CCCCCCCCCCCCCCCC(=O)N[C@H](C(=O)N[C@@H](Cc1c[nH]cn1)C(=O)N[C@@H](CCCNC(=N)N)C(=O)N[C@@H](CCCCN)C(=O)N[C@@H](CCCNC(=N)N)C(=O)N[C@@H](CC(N)=O)C(=O)N[C@@H](CC(N)=O)C(=O)N[C@@H](CO)C(=O)N[C@@H](CCCNC(=N)N)C(=O)N[C@@H](CC(C)C)C(=O)NCC(=O)N[C@@H](CC(N)=O)C(=O)NCC(=O)N[C@H](C(=O)N[C@@H](CC(C)C)C(=O)N[C@@H](Cc1ccc(O)cc1)C(=O)N[C@@H](C)C(=O)N[C@@H](CO)C(=O)N[C@H](C(N)=O)C(C)C)C(C)C)C(C)C
B4: peptide 2 (Pal-HRKRNNSRLG-NH2) (peptide)
peptide: Palmitoyl-HRKRNNSRLG-NH2
SMILES: CCCCCCCCCCCCCCCC(=O)N[C@@H](Cc1c[nH]cn1)C(=O)N[C@@H](CCCNC(=N)N)C(=O)N[C@@H](CCCCN)C(=O)N[C@@H](CCCNC(=N)N)C(=O)N[C@@H](CC(N)=O)C(=O)N[C@@H](CC(N)=O)C(=O)N[C@@H](CO)C(=O)N[C@@H](CCCNC(=N)N)C(=O)N[C@@H](CC(C)C)C(=O)NCC(N)=O
B5: peptide 7 (Pal-HRKRNNSRLGNGVLYAS-NH2) (peptide)
peptide: Palmitoyl-HRKRNNSRLGNGVLYAS-NH2
SMILES: CCCCCCCCCCCCCCCC(=O)N[C@@H](Cc1c[nH]cn1)C(=O)N[C@@H](CCCNC(=N)N)C(=O)N[C@@H](CCCCN)C(=O)N[C@@H](CCCNC(=N)N)C(=O)N[C@@H](CC(N)=O)C(=O)N[C@@H](CC(N)=O)C(=O)N[C@@H](CO)C(=O)N[C@@H](CCCNC(=N)N)C(=O)N[C@@H](CC(C)C)C(=O)NCC(=O)N[C@@H](CC(N)=O)C(=O)NCC(=O)N[C@H](C(=O)N[C@@H](CC(C)C)C(=O)N[C@@H](Cc1ccc(O)cc1)C(=O)N[C@@H](C)C(=O)N[C@@H](CO)C(N)=O)C(C)C
B6: peptide 12 (Pal-RKRNNSRLGNGVLYASVN-NH2) (peptide)
peptide: Palmitoyl-RKRNNSRLGNGVLYASVN-NH2
SMILES: CCCCCCCCCCCCCCCC(=O)N[C@@H](CCCNC(=N)N)C(=O)N[C@@H](CCCCN)C(=O)N[C@@H](CCCNC(=N)N)C(=O)N[C@@H](CC(N)=O)C(=O)N[C@@H](CC(N)=O)C(=O)N[C@@H](CO)C(=O)N[C@@H](CCCNC(=N)N)C(=O)N[C@@H](CC(C)C)C(=O)NCC(=O)N[C@@H](CC(N)=O)C(=O)NCC(=O)N[C@H](C(=O)N[C@@H](CC(C)C)C(=O)N[C@@H](Cc1ccc(O)cc1)C(=O)N[C@@H](C)C(=O)N[C@@H](CO)C(=O)N[C@H](C(=O)N[C@@H](CC(N)=O)C(N)=O)C(C)C)C(C)C
B7: peptide 24 (Pal-VFHRKRNNSRLGNGVLYASVN-NH2) (peptide)
peptide: Palmitoyl-VFHRKRNNSRLGNGVLYASVN-NH2
SMILES: CCCCCCCCCCCCCCCC(=O)N[C@H](C(=O)N[C@@H](Cc1ccccc1)C(=O)N[C@@H](Cc1c[nH]cn1)C(=O)N[C@@H](CCCNC(=N)N)C(=O)N[C@@H](CCCCN)C(=O)N[C@@H](CCCNC(=N)N)C(=O)N[C@@H](CC(N)=O)C(=O)N[C@@H](CC(N)=O)C(=O)N[C@@H](CO)C(=O)N[C@@H](CCCNC(=N)N)C(=O)N[C@@H](CC(C)C)C(=O)NCC(=O)N[C@@H](CC(N)=O)C(=O)NCC(=O)N[C@H](C(=O)N[C@@H](CC(C)C)C(=O)N[C@@H](Cc1ccc(O)cc1)C(=O)N[C@@H](C)C(=O)N[C@@H](CO)C(=O)N[C@H](C(=O)N[C@@H](CC(N)=O)C(N)=O)C(C)C)C(C)C)C(C)C
B8: peptide 8 (Pal-HRKRNNSRLGNGVLYA-NH2) (peptide)
peptide: Palmitoyl-HRKRNNSRLGNGVLYA-NH2
SMILES: CCCCCCCCCCCCCCCC(=O)N[C@@H](Cc1c[nH]cn1)C(=O)N[C@@H](CCCNC(=N)N)C(=O)N[C@@H](CCCCN)C(=O)N[C@@H](CCCNC(=N)N)C(=O)N[C@@H](CC(N)=O)C(=O)N[C@@H](CC(N)=O)C(=O)N[C@@H](CO)C(=O)N[C@@H](CCCNC(=N)N)C(=O)N[C@@H](CC(C)C)C(=O)NCC(=O)N[C@@H](CC(N)=O)C(=O)NCC(=O)N[C@H](C(=O)N[C@@H](CC(C)C)C(=O)N[C@@H](Cc1ccc(O)cc1)C(=O)N[C@@H](C)C(N)=O)C(C)C
B9: peptide 9 (Pal-HRKRNNSRLGNGVLY-NH2) (peptide)
peptide: Palmitoyl-HRKRNNSRLGNGVLY-NH2
SMILES: CCCCCCCCCCCCCCCC(=O)N[C@@H](Cc1c[nH]cn1)C(=O)N[C@@H](CCCNC(=N)N)C(=O)N[C@@H](CCCCN)C(=O)N[C@@H](CCCNC(=N)N)C(=O)N[C@@H](CC(N)=O)C(=O)N[C@@H](CC(N)=O)C(=O)N[C@@H](CO)C(=O)N[C@@H](CCCNC(=N)N)C(=O)N[C@@H](CC(C)C)C(=O)NCC(=O)N[C@@H](CC(N)=O)C(=O)NCC(=O)N[C@H](C(=O)N[C@@H](CC(C)C)C(=O)N[C@@H](Cc1ccc(O)cc1)C(N)=O)C(C)C
B10: peptide 11 (Pal-HRKRNNSRLGNGV-NH2) (peptide)
peptide: Palmitoyl-HRKRNNSRLGNGV-NH2
SMILES: CCCCCCCCCCCCCCCC(=O)N[C@@H](Cc1c[nH]cn1)C(=O)N[C@@H](CCCNC(=N)N)C(=O)N[C@@H](CCCCN)C(=O)N[C@@H](CCCNC(=N)N)C(=O)N[C@@H](CC(N)=O)C(=O)N[C@@H](CC(N)=O)C(=O)N[C@@H](CO)C(=O)N[C@@H](CCCNC(=N)N)C(=O)N[C@@H](CC(C)C)C(=O)NCC(=O)N[C@@H](CC(N)=O)C(=O)NCC(=O)N[C@H](C(N)=O)C(C)C
B11: peptide 1 (Pal-HRKRNNSRLGNG-NH2) (peptide)
peptide: Palmitoyl-HRKRNNSRLGNG-NH2
SMILES: CCCCCCCCCCCCCCCC(=O)N[C@@H](Cc1c[nH]cn1)C(=O)N[C@@H](CCCNC(=N)N)C(=O)N[C@@H](CCCCN)C(=O)N[C@@H](CCCNC(=N)N)C(=O)N[C@@H](CC(N)=O)C(=O)N[C@@H](CC(N)=O)C(=O)N[C@@H](CO)C(=O)N[C@@H](CCCNC(=N)N)C(=O)N[C@@H](CC(C)C)C(=O)NCC(=O)N[C@@H](CC(N)=O)C(=O)NCC(N)=O
B12: peptide 14 (Pal-RNNSRLGNGVLYASVN-NH2) (peptide)
peptide: Palmitoyl-RNNSRLGNGVLYASVN-NH2
SMILES: CCCCCCCCCCCCCCCC(=O)N[C@@H](CCCNC(=N)N)C(=O)N[C@@H](CC(N)=O)C(=O)N[C@@H](CC(N)=O)C(=O)N[C@@H](CO)C(=O)N[C@@H](CCCNC(=N)N)C(=O)N[C@@H](CC(C)C)C(=O)NCC(=O)N[C@@H](CC(N)=O)C(=O)NCC(=O)N[C@H](C(=O)N[C@@H](CC(C)C)C(=O)N[C@@H](Cc1ccc(O)cc1)C(=O)N[C@@H](C)C(=O)N[C@@H](CO)C(=O)N[C@H](C(=O)N[C@@H](CC(N)=O)C(N)=O)C(C)C)C(C)C
B13: peptide 23 (Pal-HRKRNNSRLGNGVLYASVNP-NH2) (peptide)
peptide: Palmitoyl-HRKRNNSRLGNGVLYASVNP-NH2
SMILES: CCCCCCCCCCCCCCCC(=O)N[C@@H](Cc1c[nH]cn1)C(=O)N[C@@H](CCCNC(=N)N)C(=O)N[C@@H](CCCCN)C(=O)N[C@@H](CCCNC(=N)N)C(=O)N[C@@H](CC(N)=O)C(=O)N[C@@H](CC(N)=O)C(=O)N[C@@H](CO)C(=O)N[C@@H](CCCNC(=N)N)C(=O)N[C@@H](CC(C)C)C(=O)NCC(=O)N[C@@H](CC(N)=O)C(=O)NCC(=O)N[C@H](C(=O)N[C@@H](CC(C)C)C(=O)N[C@@H](Cc1ccc(O)cc1)C(=O)N[C@@H](C)C(=O)N[C@@H](CO)C(=O)N[C@H](C(=O)N[C@@H](CC(N)=O)C(=O)N1CCC[C@H]1C(N)=O)C(C)C)C(C)C
B14: peptide 5 (Pal-HRKRNNSRLGNGVLYASV-NH2) (peptide)
peptide: Palmitoyl-HRKRNNSRLGNGVLYASV-NH2
SMILES: CCCCCCCCCCCCCCCC(=O)N[C@@H](Cc1c[nH]cn1)C(=O)N[C@@H](CCCNC(=N)N)C(=O)N[C@@H](CCCCN)C(=O)N[C@@H](CCCNC(=N)N)C(=O)N[C@@H](CC(N)=O)C(=O)N[C@@H](CC(N)=O)C(=O)N[C@@H](CO)C(=O)N[C@@H](CCCNC(=N)N)C(=O)N[C@@H](CC(C)C)C(=O)NCC(=O)N[C@@H](CC(N)=O)C(=O)NCC(=O)N[C@H](C(=O)N[C@@H](CC(C)C)C(=O)N[C@@H](Cc1ccc(O)cc1)C(=O)N[C@@H](C)C(=O)N[C@@H](CO)C(=O)N[C@H](C(N)=O)C(C)C)C(C)C

The binders below were run against Insulin-like growth factor 1 receptor (IGF1R) (UniProt P08069 31-1367, limits assumed) (assay: cell-based or functional assay).
Insulin-like growth factor 1 receptor (IGF1R), sequence (P08069 31-1367 limits assumed): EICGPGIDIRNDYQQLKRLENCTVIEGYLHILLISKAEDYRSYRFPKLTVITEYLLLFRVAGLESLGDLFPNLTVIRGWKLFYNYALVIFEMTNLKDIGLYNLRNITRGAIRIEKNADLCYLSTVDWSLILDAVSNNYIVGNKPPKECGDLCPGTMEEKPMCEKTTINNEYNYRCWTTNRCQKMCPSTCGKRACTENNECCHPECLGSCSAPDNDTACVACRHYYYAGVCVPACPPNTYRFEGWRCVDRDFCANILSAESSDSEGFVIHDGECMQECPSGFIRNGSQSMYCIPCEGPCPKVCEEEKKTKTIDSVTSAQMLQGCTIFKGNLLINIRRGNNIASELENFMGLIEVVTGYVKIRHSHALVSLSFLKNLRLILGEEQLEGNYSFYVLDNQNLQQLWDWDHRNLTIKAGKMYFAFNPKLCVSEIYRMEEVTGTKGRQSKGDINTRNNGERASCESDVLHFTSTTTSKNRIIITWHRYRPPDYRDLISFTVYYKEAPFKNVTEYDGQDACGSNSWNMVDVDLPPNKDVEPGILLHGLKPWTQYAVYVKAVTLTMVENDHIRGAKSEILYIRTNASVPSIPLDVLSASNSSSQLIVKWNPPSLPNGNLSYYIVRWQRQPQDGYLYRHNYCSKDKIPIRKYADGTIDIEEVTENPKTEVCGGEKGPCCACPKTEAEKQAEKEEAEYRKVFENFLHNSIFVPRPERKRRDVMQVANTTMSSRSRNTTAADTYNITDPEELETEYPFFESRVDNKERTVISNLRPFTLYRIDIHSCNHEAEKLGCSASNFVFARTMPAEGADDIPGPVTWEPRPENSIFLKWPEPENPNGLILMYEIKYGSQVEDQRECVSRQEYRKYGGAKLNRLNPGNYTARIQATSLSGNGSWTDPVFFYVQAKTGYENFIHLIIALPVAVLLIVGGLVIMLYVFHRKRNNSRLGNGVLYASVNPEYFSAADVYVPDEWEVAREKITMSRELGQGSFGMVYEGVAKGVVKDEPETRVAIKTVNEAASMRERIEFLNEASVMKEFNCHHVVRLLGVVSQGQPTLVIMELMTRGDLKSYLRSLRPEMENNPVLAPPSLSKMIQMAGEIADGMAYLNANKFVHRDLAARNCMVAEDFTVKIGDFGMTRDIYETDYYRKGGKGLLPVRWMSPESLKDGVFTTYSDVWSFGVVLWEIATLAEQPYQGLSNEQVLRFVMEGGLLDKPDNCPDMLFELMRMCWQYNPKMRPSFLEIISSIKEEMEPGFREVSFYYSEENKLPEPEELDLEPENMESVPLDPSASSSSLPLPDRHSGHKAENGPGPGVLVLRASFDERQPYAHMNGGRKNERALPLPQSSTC

Row | GI50 (µM), MTT assay, MCF-7 cells | TGI (µM), MTT assay, MCF-7 cells | Binder
1 | 1.8 µM | > 5 µM | B1
2 | 0.08 µM | 0.5 µM | B2
3 | 0.25 µM | 1.05 µM | B3
4 | 1.3 µM | > 5 µM | B4
5 | 1.45 µM | 4.1 µM | B5
6 | 1.2 µM | 2.7 µM | B6
7 | 0.1 µM | 1.1 µM | B7
8 | 1.4 µM | > 5 µM | B8
9 | 1.65 µM | > 5 µM | B9
10 | 2.5 µM | > 5 µM | B10
11 | 1.8 µM | > 5 µM | B11
12 | 0.1 µM | 0.4 µM | B12
13 | 0.1 µM | > 5 µM | B13
14 | 0.45 µM | 1.45 µM | B14
